The source of these data is paper PMC12416549 (2024).

Substitutions are numbered along the chain they refer to. Names may count otherwise.

In this assay the target is T1, TNFR1 (Homo sapiens, UniProt P19438).
T1 chain: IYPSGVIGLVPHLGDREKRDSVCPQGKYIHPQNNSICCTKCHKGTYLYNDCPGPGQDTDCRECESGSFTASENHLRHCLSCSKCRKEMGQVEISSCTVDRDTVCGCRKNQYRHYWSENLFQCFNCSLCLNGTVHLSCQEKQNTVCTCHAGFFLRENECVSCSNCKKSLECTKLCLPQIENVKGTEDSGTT
Description: yeast display SC50.

B1: Y13V (designed binder)
chain: SMEEEVEKAAKEVEKKKKEAIEKHLEKLKAKDKEAAERFLKELEEAAKEYAKDEAKTMSEEEAKRRAKKYKEKVLLSELSEEEQKEIKEAEEKLVRTILKYVEEAAK
As to B1, the “apparent Kd (screen)” value is 8.56 nM.

B2: E12A (designed binder)
chain: B1 chain with E12A, V13Y
Take B2: the “apparent Kd (screen)” value worked out at 0.446 nM.

B3: R38T (designed binder)
chain: B1 chain with V13Y, R38T
For B3, the “apparent Kd (screen)” value was 2.05 nM.

B4: A47W (designed binder)
chain: B1 chain with V13Y, A47W
Consider B4, for which the “apparent Kd (screen)” value was found to be 3 nM.

B5: E7K (designed binder)
chain: B1 chain with E7K, V13Y
For B5, the “apparent Kd (screen)” value worked out at 4.39 nM.

B6: A46Q (designed binder)
chain: B1 chain with V13Y, A46Q
For the molecule B6, the “apparent Kd (screen)” value worked out at 0.539 nM.

B7: I98D (designed binder)
chain: B1 chain with V13Y, I98D
As for B7, the “apparent Kd (screen)” value was 1.86 nM.

B8: E72F (designed binder)
chain: B1 chain with V13Y, E72F
Regarding B8, the “apparent Kd (screen)” value turned out to be 0.446 nM.

B9: A105S (designed binder)
chain: B1 chain with V13Y, A105S
Regarding B9, the “apparent Kd (screen)” value came out at 0.956 nM.

B10: E62V (designed binder)
chain: B1 chain with V13Y, E62V
Turning to B10, the “apparent Kd (screen)” value is 2.73 nM.

B11: K41D (designed binder)
chain: B1 chain with V13Y, K41D
On to B11, for which the “apparent Kd (screen)” value came to 0.539 nM.

B12: A36Q (designed binder)
chain: B1 chain with V13Y, A36Q
Consider B12, for which the “apparent Kd (screen)” value is 0.653 nM.

B13: E54V (designed binder)
chain: B1 chain with V13Y, E54V
For B13, the “apparent Kd (screen)” value was 20.2 nM.

B14: E37Q (designed binder)
chain: B1 chain with V13Y, E37Q
On to B14, for which the “apparent Kd (screen)” value came out at 0.539 nM.

B15: K48G (designed binder)
chain: B1 chain with V13Y, K48G
Consider B15, for which the “apparent Kd (screen)” value was found to be 0.49 nM.

B16: L99G (designed binder)
chain: B1 chain with V13Y, L99G
On to B16, for which the “apparent Kd (screen)” value was found to be 5.31 nM.

B17: A106V (designed binder)
chain: B1 chain with V13Y, A106V
As for B17, the “apparent Kd (screen)” value amounted to 2.73 nM.

B18: K85S (designed binder)
chain: B1 chain with V13Y, K85S
Consider B18, for which the “apparent Kd (screen)” value came out at 0.593 nM.

B19: K29H (designed binder)
chain: B1 chain with V13Y, K29H
Take B19: the “apparent Kd (screen)” value stood at 0.593 nM.

B20: A90M (designed binder)
chain: B1 chain with V13Y, A90M
B20: the “apparent Kd (screen)” value amounted to 0.446 nM.

B21: E91D (designed binder)
chain: B1 chain with V13Y, E91D
As for B21, the “apparent Kd (screen)” value was determined as 0.446 nM.

B22: Y101H (designed binder)
chain: B1 chain with V13Y, Y101H
As to B22, the “apparent Kd (screen)” value amounted to 0.49 nM.

B23: Q84W (designed binder)
chain: B1 chain with V13Y, Q84W
In the case of B23, the “apparent Kd (screen)” value was 12.5 nM.

B24: K8A (designed binder)
chain: B1 chain with K8A, V13Y
As for B24, the “apparent Kd (screen)” value was 0.593 nM.

B25: E60P (designed binder)
chain: B1 chain with V13Y, E60P
For the molecule B25, the “apparent Kd (screen)” value was 2.05 nM.

B26: E22F (designed binder)
chain: B1 chain with V13Y, E22F
Consider B26, for which the “apparent Kd (screen)” value amounted to 0.593 nM.

B27: L40H (designed binder)
chain: B1 chain with V13Y, L40H
For B27, the “apparent Kd (screen)” value turned out to be 0.49 nM.

B28: A10D (designed binder)
chain: B1 chain with A10D, V13Y
On to B28, for which the “apparent Kd (screen)” value was 0.49 nM.

B29: E60H (designed binder)
chain: B1 chain with V13Y, E60H
B29: the “apparent Kd (screen)” value stood at 0.593 nM.

B30: L75F (designed binder)
chain: B1 chain with V13Y, L75F
With B30, the “apparent Kd (screen)” value worked out at 0.869 nM.

B31: Q84M (designed binder)
chain: B1 chain with V13Y, Q84M
For the molecule B31, the “apparent Kd (screen)” value is 5.84 nM.

B32: E19Q (designed binder)
chain: B1 chain with V13Y, E19Q
On to B32, for which the “apparent Kd (screen)” value was 0.49 nM.

B33: K48T (designed binder)
chain: B1 chain with V13Y, K48T
Consider B33, for which the “apparent Kd (screen)” value amounted to 0.49 nM.

B34: E81A (designed binder)
chain: B1 chain with V13Y, E81A
As for B34, the “apparent Kd (screen)” value was found to be 0.718 nM.

B35: Y101C (designed binder)
chain: B1 chain with V13Y, Y101C
On to B35, for which the “apparent Kd (screen)” value was determined as 0.446 nM.

B36: K73R (designed binder)
chain: B1 chain with V13Y, K73R
With B36, the “apparent Kd (screen)” value amounted to 9.41 nM.

B37: Y70V (designed binder)
chain: B1 chain with V13Y, Y70V
On to B37, for which the “apparent Kd (screen)” value amounted to 22.2 nM.

B38: A10L (designed binder)
chain: B1 chain with A10L, V13Y
As for B38, the “apparent Kd (screen)” value stood at 0.956 nM.

B39: E103Q (designed binder)
chain: B1 chain with V13Y, E103Q
As to B39, the “apparent Kd (screen)” value stood at 0.49 nM.

B40: K100T (designed binder)
chain: B1 chain with V13Y, K100T
In the case of B40, the “apparent Kd (screen)” value came out at 0.869 nM.

B41: K93T (designed binder)
chain: B1 chain with V13Y, K93T
On to B41, for which the “apparent Kd (screen)” value is 0.869 nM.

B42: K18T (designed binder)
chain: B1 chain with V13Y, K18T
Regarding B42, the “apparent Kd (screen)” value is 1.16 nM.

B43: E91T (designed binder)
chain: B1 chain with V13Y, E91T
On to B43, for which the “apparent Kd (screen)” value was determined as 7.07 nM.

B44: A90E (designed binder)
chain: B1 chain with V13Y, A90E
Consider B44, for which the “apparent Kd (screen)” value is 0.49 nM.

B45: K11R (designed binder)
chain: B1 chain with K11R, V13Y
In the case of B45, the “apparent Kd (screen)” value turned out to be 0.593 nM.

B46: S59H (designed binder)
chain: B1 chain with V13Y, S59H
For B46, the “apparent Kd (screen)” value worked out at 0.593 nM.

B47: K33S (designed binder)
chain: B1 chain with V13Y, K33S
On to B47, for which the “apparent Kd (screen)” value is 0.869 nM.

B48: A47T (designed binder)
chain: B1 chain with V13Y, A47T
B48: the “apparent Kd (screen)” value turned out to be 0.653 nM.

B49: L40G (designed binder)
chain: B1 chain with V13Y, L40G
In the case of B49, the “apparent Kd (screen)” value was determined as 0.446 nM.

B50: A105W (designed binder)
chain: B1 chain with V13Y, A105W
Turning to B50, the “apparent Kd (screen)” value was 13.8 nM.

B51: Y101W (designed binder)
chain: B1 chain with V13Y, Y101W
In the case of B51, the “apparent Kd (screen)” value came to 2.73 nM.

B52: D32P (designed binder)
chain: B1 chain with V13Y, D32P
In the case of B52, the “apparent Kd (screen)” value worked out at 8.56 nM.

B53: A35H (designed binder)
chain: B1 chain with V13Y, A35H
Regarding B53, the “apparent Kd (screen)” value is 1.05 nM.

B54: K17R (designed binder)
chain: B1 chain with V13Y, K17R
As to B54, the “apparent Kd (screen)” value stood at 0.653 nM.

B55: K16L (designed binder)
chain: B1 chain with V13Y, K16L
With B55, the “apparent Kd (screen)” value amounted to 0.446 nM.
